{"source": "paper PMC4851618", "about": "“Structural dynamics of a methionine γ-lyase for calicheamicin biosynthesis: Rotation of the conserved tyrosine stacking with pyridoxal phosphate” (Structural Dynamics, 2016)", "proteins": {"B1": {"name": "CalE6, PLP-dependent methionine γ-lyase from Micromonospora echinospora (D7G variant, selenomethionine labeled) (enzyme, UniProt Q8KNG3 1-381, looked up)", "chain": "MSGMRFGTRLVHGGRRPSAGTGDVVPPIHVSTTYERRAQDEPRYFYGRGENPTREELEECLAGLERAPFATVFSSGQAAAATLLSLVRPGQCVVSTDDVYAGTDGLFDLAARQGVRVRYADLTTPEGIAAALAEPDLALVWIETPTNPLLTVVDVAEVSRRAHERGARVVVDNTFASPVLQQPLALGADVSLYSTTKSIAGHADVLGGALVYRDADLHAAVRAYRTTAGNVPGALDCFLVRRGLHTLSLRVHRQVATARVLVERLRASPVVGAVHYPGLPEHPQHAVVKAQMSAPGAIVSFDYLGGPAERLLDRFTLFTCGVSLGGVHSLVECPALMTHRPLSAEARARRGIGESLIRLSVGIEDPQDLAEDLSRALAGGT", "modifications": "selenomethionine in place of methionine; Lys 197 bound covalently to PLP (Schiff base, residue LLP 197)", "notes": "The printed fusion scheme (ENLYFQ/SNA-TARGET) leaves SNA before the protein after TEV cleavage; The forward primer begins the target with GTG (AGC GGT ATG CGC TTC GAC follow), so the first residue behind SNA may be Val, not Met; Crystallised with 1 mM PLP; also called CalE6-MES complex; CalE6 holoenzyme; source: E. coli BL21(DE3), selenomethionine labeled, purified (Ni-NTA, TEV cleavage, …)"}}, "target": "the molecule itself", "test": "crystal structure; sitting drop, 11 mg/ml protein with 1 mM PLP, 12% w/v PEG 20000, 0.1 M MES pH 6.5, 289 K; SAD, 2.10 Å, space group I222; quaternary assembly calculated by PISA"}
{"protein": "B1", "values": [{"measurement": "stoichiometry N", "value": 4}]}
